In the nanobody polyreactivity screen of Harvey et al. (2022):

Assay: yeast display, Sf9 membrane polyspecificity reagent, FACS + sequencing; frameworks hold sequencing errors
Summary of the method: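 A nanobody's polyreactivity label depends on the gate it was sorted from. Yeast display cells were stained with 10% biotinylated, detergent-solubilized Sf9 membrane reagent for 1 hour at 4 °C, enriched on streptavidin microbeads and sorted by FACS. The low and high (top ~1%) gates were set on anti-HA fluorescence for expression and streptavidin fluorescence for reagent binding.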

| Sequence | polyreactivity (PSR sort gate) |
| --- | --- |
| QDQLVDSGGGFVQAGGSLSLSCAASRRTFLYYAMGWYRQAPGKERELVAAIRRGSSTYYADSVKGRFTISRDNAKNNGFLQLISLIAADTAVYYCAAEFVNGPPYGAYDYWGQGTQVTVSS | high polyreactivity |
| QVQLVESGGGLVQAGGSLRLSCAASGRIFPIYAMGWYRQAPGKERELVATIRYSSGTTYYADSVKGRFTISRDNAKNTVYLQMNSLKPEDTAVYYCAADSQWAYISEYDYWGQGTQVTVSS | low polyreactivity |
| QVQLVESGVGLVQAGGSLSLSCAASGFTFHDYAMGWYSQAPGKERELVAAIDWSGGRTYYADSVKGRFTISRDNAKNTVYLQMNSLKPEDTAVYYCAAVRYSRLYWYRLDYGGQGTQVTVSS | low polyreactivity |
| QVQLVESGGGLVQAGGSLRLSCAASGFTIRNYAMGLYRQAPGKERELFAAIRGRGGSTYYADSVKGRFTISRDNAKNTDYLQMNSLKPEDTAVYYCARVGYASYEHDYWGQGTQVNVSS | high polyreactivity |
| QVQLVESGGGLVQAGGSLRLSCAASGGIFYLNAMGWYREAPGKERELVAAISSGVSTYYADSVKGRFTISRDNAKNTVYLQMNSLKPEDTAVYYCNADYNYPAWVGSWWDYDYWGQGTQVTVSS | low polyreactivity |
| QVQLVESGGGLVQAGGSLRLSCAASGRIFAPKAMGWYRQAPGKERELVATITWSGGSTYYADSVKGRFTISRDNAKNSVYLQMNSLNPEDTAVYYCAAETQIRLWSLQYRYYYWGQGTQVTVSS | low polyreactivity |
| QVQLVESGGGLVQAGGSLRLSCAASGLIFGSYVMGWYSQAPGKERELVAAISTSGGRTYYADSVKGRFTISRDNATNTVYLQMNSLKPEDTAVYFCAASRWHGYNYWGQGTQVTVSS | high polyreactivity |
| QVQLVESGGGLVQAGGSLRLISAASGSTFDSYAMGWYRPAPGKERELVAAITRSVGSTYYADSVKGRFTISRDNAKNTVYLHMNSVKPEVTAVYYCAARGEWAIYVEFDYWGQGTQVTVSS | low polyreactivity |
| QVQLVESGGGLVQAGGSLRLSCAATGSILVYYAMGWSRQAPGKERELVAAISSGGSTNYADSVKGRFTISRDNAKNTVYLQMNSLKPEDTAVYYCDKESGWVGAIHYDYWGQGTQVTVSS | low polyreactivity |
| QVQLVESGGGLVQAGGSLRLSCAASGYTFYSYAMGWYRQAPGKERELFAAITESGARTYYADSVKGRFTISRDNAKNTVYLQMNSLKPEVTAVYYCAADYAWPLRVTGDYWGQGTQVTVSS | low polyreactivity |
| QVQLVESGGGLVQAGGSLRLSCAASGRIFGYYAMGWSRQAPGKERELVATITFGGGSTYYADSVKGRFTISRDNAKNTVYFQMNSLKPEDTAVYYCAADSGYLGIYGDEYSWGQGTQVTVSS | low polyreactivity |
| QVQLVESGGGLVQAGGSLRLSCAASGRTQSANAMGWYREAPGKERELVATISTRGGRTYYADSVKGRFTISRDNAKNTVYLQMNSLKPEDTAVYYCAVTIRAKYTMKEDYWGQGTQVTVSS | low polyreactivity |
| QVQLVESGGGLVQAGGSLRLSCAASGSIFASYAMGWYRQAPGKERELVAAIRSSGGRTYYADSVKGRFTISRDNAKYTVYLQMYSLKPEDTAVYYCNDRRPGYRPYGYDYWGQGTQVTVSS | high polyreactivity |
| QVQLVESGRGLVQAGGSLRLSCAASGSTCEGNAMGWYRQAPGKEELVAAISWSSDSTYNADSVKGRFTISRDNAKNTVYLQMNSLKPEDTAVYYCAAAIPGKYSNDYWGQGTQVTVSS | high polyreactivity |
| QVQLVESGGGLVQAGGSLRLSSAASGFICATYSMGWYRQAPGKERELVASIRKSGGSTYYADSVKGRFTISRDNAKNTVYLQMNSLKPEDTAVYYCAKVYRYYPKYNYWGQGTQVTVSS | high polyreactivity |
| QVQLQESGGGPVLAGGSLRLSCAASGTIFVPLDMGWYRQAPGKEREFVATIGSGSSTYYADSVKGSFTISRDNVKNTVYLQMNSLKPEDTAVYYCAVSAAEQSRHYYWDQGTQVTVSS | low polyreactivity |
| QVQLVESGGGLVQAGGSLRLSCAASGLTFTPNAMGWYRQAPGKEREFVAAITWRGGRTYYADSVKGRFTISRDNAKNTVYLQMNSLKPEDTAVYYCAVTYRPTYQLDYWGQGTQVTVSS | high polyreactivity |
| QVQLVESGGGLVQAGGSLRLSCAASGSIFLVYGMGWYRPAPGKERELVAAISRTGGRTYYADSVKGRFTISRDNSKNTVYLQMNSLKPEDTAVYYCAAAAQRPEGYYWGQGTQVTVSS | high polyreactivity |
| QVQLVESGGGLVQAGGSLRLSCAASGRTFRSYAMGWYRQAPGKERELVAAISYGGGRTFYADSVKGRFTISRDNAKNTVYLQMNSLKPEDTAVYYCNAAFPRSYRFDYWGQGTKVTVSS | high polyreactivity |
| QGQLVESGGCLVQAGGSLRLSCAASGSIFSENTMGWYRQAPGKKRELVADITSGGSTNYADSVKGRFTSSRDNAKYTVYLQMNSLIPEDTEVYYCAADYNGEYDYWGQGTLVTVSS | low polyreactivity |
| QVQLVDSGGGLVQAGGSLRLSCAAAGSNLSQYAMGWYRQAPGKERELVAAITYGGGSTYYADSVKGRFTISRDNAKKTVHIQMISLKPEDPAVYYCALEFTYWGDPYDYWGQGTQVTVSS | low polyreactivity |
| QVQLVESGGGLVQAGGSLRLSCAASGRIFGYYTMGWYRQAPGKERELVAAISSGGTTYYADSVKGRFTISRDNAKNTVYLQMNSLKPEDTAVYYCAADYYNTYGYDYWGQGTQVTVSS | low polyreactivity |

| Sequence | polyreactivity (PSR sort gate) |
| --- | --- |
| QLQLVESGGGLVQAGGSLRLSCAASGSIFGGYAMGWYRQAPGKERELVAAITGTDTTNYADSVKGRFTISRDNAKNTVYLQMNSLKPEDTAVFYCNADYQPVAAVYNYDYWGQGTQVTVSS | low polyreactivity |
| QVQLVESGGGLVQAGGSLRLSCAASGITFNRYAMGWYRQAPGKERELVATISYRGGSTSYADSVKGRFTISRDNAKNTVYLQMNSLKPEDTAVYYCATDEGYVLFKYYSWGQGTQVTVSS | low polyreactivity |
| QVQHVESGGGLVQAGGSLRLSCAASGRIFSRYAMGWYRQAPGKERELVAAITSGGSTYYADSVKGRFTISRDNAKNTVYLQMNSLKPEDTAVSYCATRYRFGSYHSIYDYWGQGTQVTVSS | high polyreactivity |
| AVQLVESGGGLVQAGGSLRLSCAASGSIFPWYTMGWYRQAPGKERELVASITKSGARTYYADSVKGRFTISRDNAKNTVYLQMNSLKPEDTAVYYCAAVYPVWKYHYAYWGQGTQVTVSS | high polyreactivity |
| QVQLVESGGGLVQAGGSLRLSCAASGFTFFYNAMGWYSQAPGKESELVASITVSTSGTDYADSVKGRFTISRDNAKNTVYLQMNSLKPEDTAVYYCATDLVFVYSDLQDTAYYWGQGTQVTVSS | low polyreactivity |
| QVQLVESGGGLVQAGGSLRISCAASGNIIRKYAMGWYRQAPGKEREFVAAISSSGGRTYYADSVKGRFTISRDNAKNTVYLQMNSLKPEDTAGYYCARPYSYAYVLGDYWGQGTQVTVSS | high polyreactivity |
| QVQHVESGGGLVQAGGSLRLSCAASGFTFTRYAMGWYRQAPGKERELVAAISRGGTTYADSVKGRFTISRDNAKNTVYLQMNSLKPEDTAVYYCNRLRYGYPQEFGYWGQGTQVTVSS | high polyreactivity |
| QVQLVESGGGLVQAGGSLRLSCAASGSIFKKYAMGWYRQAPGKERELVAAISSGGGSTYYADSVKGRFTISRDNAKNTVYLQMNSLKPEDTAVYYCNARIQYFKYRGYEYWGQGTQVTVSS | high polyreactivity |
| LVQLQESAGGLVQAGGSLRLSCAASGSISVTRAMCWYRQAPGNERELVASTTGGSNNADSVNGRFTISRDNAKNTVYLQMNSLKPEDTAVYYCAAAVGVGRSGGTYDYWGQGTQVTVSS | low polyreactivity |
| HVQLQERAAWCRRAGSLRQSCAASGNISHYYFMGWYRQAPGKERELVAAIAPGSNTYYADSVKGRFTISRDNAKNTVYLQMNSLKPEDTAVCFCAANSTQYTWFDYWGQGTQVPVSS | low polyreactivity |
| QVQLVESGGGLFQAGGSLRLSCAASGSTFGTYAMGRYRPPPAKERELVAAISTGGSTYYADSVKGRFTISRDNAKNTVYLQMNSLKPEDTAVYYCAALADYVRRASDYWGQGTQVTVSS | low polyreactivity |
| QVQVVESGGGLVQAGGSLRLSCAASGSTFSRNAMGWYRQAPGKERELVAAINYSGGITYYADSVKGRFTISRDNAKNTVYLQMNSQKPEDTAVYYCAAVATNVPTHGRPSRRAYDYWGQGTQVTVSS | low polyreactivity |
| QVHLVESGGGLVQAGGSLRLSCAASGSTFYRYAMGWYRQAPGKEREFVASISKRGGSTYYADSVKGRFTISRDNAKNTVYLQMISLKPEETAVYYCAADPKFFSGSYLYGYWGQGTQVTVSS | high polyreactivity |
| QVQLVESGGGLVQAGGSLRLSCAASGITSKQYAMVWYRQAPGKERELVAAISGSGTRTYYADSVKGRFTISRDNAKNTVNLQMNSLKPEDTAVYYCAAYGYSRCHDDWGQVTQVTVSS | high polyreactivity |
| QVQLVESGGGLVQAGGSLRLSCAASGFTIYRYAMGWSRQAPGKERELVAAISGGGSRTYYADSVKGRFTISRDNAKNTVYLLMNSLKPEDTAVYYCNADPVKYSYDGYARPRYDYWGQGTQVTVSS | low polyreactivity |
| QVQLVESGGGLVQAGGSLRLSCAASGSIFGVNTMGWYRQAPGKERELVAAISSGGNTHYADSVKGRFTISRDNAKNTVYLQMNSLKPEDTAVYYCAAAYVGIYYVSRRRWERYYYWGQGTQVTVSS | high polyreactivity |
| QVQLVESGGGLVQAGGSLRISCAPSGSTFPHNAMGWYRQAPGKERELVAAISSIGVRTYYADSVKGRFTISRDNAKNTVYLQMNSLKPEDTAVYYCAAEYDGPYTWVEYYYHYGYWGQGTQVTVSS | high polyreactivity |
| QVQLVESGGGLVQAGGSLRLSCAASGFIFRRYAMGWYRQAPGKERELVAAITWNGGTTYYADSVKGRFTISRDYAKNTVYLQMNRLKPEDTAVYYCAAASRHTGSYRFYYWGQGTQVTVSS | high polyreactivity |
| QVQLVETGGGLVQAGGSLRLSCAASGRIFKRNTMGWYRQAPGKEREFVASITFSGGSTNYADSVKGRFTISRDNAKNTVYLQMNSLKPEDTAVYYCAARDYHYSTYDYWGQGTQVTVSS | low polyreactivity |
| QVQLVESGGGLVQAGGSLRLSCAASGRIFQYYVMGWYRQAPGKERELVAAITSGGGTKYADSVKGRFTISRDNAKNTVYLQMNSLKPEDTAVYYCAAAWFDQYSRYDYWGQGTQVTVSS | low polyreactivity |
| QVQLVESGGGLVQAGGSLRLSCGASGRIFAYYAMGWYRQAPGKERELVADISSGGNTYYADSVKGRFTISRDNAKNTVYLQMNSLKPEDTAVYYCAADIAWYTHDHRIFDYWGQGTQVTVSS | low polyreactivity |
